Laboratory results from paper PMC8156467, “Disruption of YY1-EZH2 Interaction Using Synthetic Peptides Inhibits Breast Cancer Development” (Cancers, 2021).

B1: GST-EZH2 (465–545) (domain or fragment)
chain: not shown
notes: Vector pGEX-4T-1; source: E. coli; held on Glutathione-Sepharose beads from bacterial lysate (pull-down); purified (SPR)
B2: GST-EZH2 (465–519) (domain or fragment)
chain: not shown
notes: Vector pGEX-4T-1; source: E. coli; held on Glutathione-Sepharose beads from bacterial lysate
B3: GST-EZH2 (385–618) (domain or fragment)
chain: not shown
notes: as for B1

Target: T1, His×6-YY1 (UniProt P25490 1-414)
T1 construct: Yin Yang 1 (YY1); The construct and its host are not described in the methods; also called purified His×6-YY1
Experiment: pull-down; GST-EZH2 fragments from E. coli lysates held on Glutathione-Sepharose beads, washed, 1.0 µg of purified His×6-YY1 added for 4 h at 4 °C; 20 mM Tris-HCl pH 7.5, 150 mM NaCl, 0.1% NP-40
Details: both partners purified

T1 sequence (P25490 whole entry): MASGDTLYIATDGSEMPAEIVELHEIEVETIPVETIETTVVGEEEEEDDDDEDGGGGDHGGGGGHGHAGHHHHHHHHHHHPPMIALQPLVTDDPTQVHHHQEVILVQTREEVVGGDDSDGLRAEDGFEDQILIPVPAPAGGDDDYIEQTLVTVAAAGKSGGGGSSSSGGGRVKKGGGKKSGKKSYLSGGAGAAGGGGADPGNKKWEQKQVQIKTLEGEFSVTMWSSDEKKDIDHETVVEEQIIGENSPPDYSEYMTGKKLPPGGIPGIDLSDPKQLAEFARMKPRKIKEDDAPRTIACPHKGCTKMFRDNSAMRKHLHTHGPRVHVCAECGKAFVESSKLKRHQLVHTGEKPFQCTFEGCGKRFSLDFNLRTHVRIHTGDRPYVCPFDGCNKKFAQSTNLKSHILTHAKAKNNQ

binding result	Binder
binds	B1
binds	B2
binds	B3
